Measured values as given in PMC6393540, “A dual role in regulation and toxicity for the disordered N-terminus of the toxin GraT”.

Legend:
[1] = biological target: T1, GraA (antitoxin; His-GraA2) (Pseudomonas putida (PaW85?)) (UniProt Q88MI6); experiment: ITC; settings: ITC: 50 mM Tris pH 8.0, 250 mM NaCl, 2 mM β-mercaptoethanol (TCEP in purification for ITC), 25 °C; EMSA: 5 µM DNA, 30 min at room temperature, 6% native PAGE …
T1 sequence: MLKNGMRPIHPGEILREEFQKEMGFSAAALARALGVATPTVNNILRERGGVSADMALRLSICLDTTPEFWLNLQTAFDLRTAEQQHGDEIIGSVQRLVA

[2] = biological target: N-terminally His-tagged antitoxin GraA (Pseudomonas putida); experiment: crystal structure; crystal of hisGraA2, 1.96 Å, data at 100 K
[3] = biological target: N-terminally His-tagged antitoxin GraA (Pseudomonas putida); experiment: crystal structure; crystal of hisGraA2 with the 33 bp graTA operator DNA, 3.8 Å, data at 100 K
[4] = biological target: N-terminally His-tagged antitoxin GraA (Pseudomonas putida); experiment: native MS; GraA2 (20 μM dimer) mixed with operator DNA duplex at 1:1, 2:1 and 4:1, 40 mM ammonium acetate pH 7, nano-electrospray
[5] = biological target: untagged antitoxin GraA co-expressed with His-tagged GraT (Pseudomonas putida); experiment: crystal structure; crystal of the co-expressed and co-purified hisGraT2A2 complex, 2.2 Å, data at 100 K
[6] = biological target: T2, GraA (antitoxin; His-GraA2) (Pseudomonas putida, UniProt Q88MI6 1-99); experiment: ITC; macroscopic; ITC: 50 mM Tris pH 8.0, 250 mM NaCl, 2 mM β-mercaptoethanol (TCEP in purification for ITC), 25 °C; EMSA: 5 µM DNA, 30 min at room temperature, 6% native PAGE in TBE on ice; settings: protein: recombinant; tags: N-terminal His6; chain copies: 4
T2 sequence: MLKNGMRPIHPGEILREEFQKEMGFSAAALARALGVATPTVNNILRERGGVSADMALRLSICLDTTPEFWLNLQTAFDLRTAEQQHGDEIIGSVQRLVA

[7] = biological target: T2, GraA (antitoxin; His-GraA2); experiment: ITC; N.D., binding too weak; ITC: 50 mM Tris pH 8.0, 250 mM NaCl, 2 mM β-mercaptoethanol (TCEP in purification for ITC), 25 °C; EMSA: 5 µM DNA, 30 min at room temperature, 6% native PAGE in TBE on ice; settings: protein: recombinant; tags: N-terminal His6; chain copies: 4
[8] = biological target: T2, GraA (antitoxin; His-GraA2); experiment: ITC; macroscopic, 2 dimers per DNA; text also gives 3.1e13; ITC: 50 mM Tris pH 8.0, 250 mM NaCl, 2 mM β-mercaptoethanol (TCEP in purification for ITC), 25 °C; EMSA: 5 µM DNA, 30 min at room temperature, 6% native PAGE in TBE on ice; settings: protein: recombinant; tags: N-terminal His6; chain copies: 4
[9] = biological target: T3, GraT (toxin) in GraT2A2 complex;GraA (untagged) in GraT2A2 complex (Pseudomonas putida;Pseudomonas putida, UniProt Q88MI5;Q88MI6 1-92;1-99, |); experiment: ITC; macroscopic; ITC: 50 mM Tris pH 8.0, 250 mM NaCl, 2 mM β-mercaptoethanol (TCEP in purification for ITC), 25 °C; EMSA: 5 µM DNA, 30 min at room temperature, 6% native PAGE in TBE on ice; settings: protein: recombinant;recombinant; tags: N-terminal His6;none; chain copies: 2;2
T3 sequence 1: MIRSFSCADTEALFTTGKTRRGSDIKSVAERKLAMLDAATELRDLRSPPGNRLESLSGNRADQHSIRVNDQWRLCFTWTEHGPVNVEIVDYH
T3 sequence 2: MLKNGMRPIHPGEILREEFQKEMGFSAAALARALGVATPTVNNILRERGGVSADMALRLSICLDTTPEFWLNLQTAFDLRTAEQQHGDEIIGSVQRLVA

Molecule: AAATTAACGAATAACGTTATTCGTTAATTT (double strand) [Left side mirrored]
- Ka [1]: 5.2e+12 M^-2

Molecule: N-terminally His-tagged antitoxin GraA (natural protein)
- stoichiometry N [2]: 2
- stoichiometry N [3]: 2
- stoichiometry N [4]: 2

Molecule: AGCTGAATGCTTAACGTTAAGCATTCAGCT (double strand) [Right side mirrored]
- Ka [1]: 3.5e+12 M^-2

Molecule: untagged antitoxin GraA co-expressed with His-tagged GraT (natural protein)
- stoichiometry N [5]: 2

B1: Variant 5 (dsDNA)
DNA 1: AAATTAACGCCGAACGTTAAGCATTCAGC
DNA 2: GCTGAATGCTTAACGTTCGGCGTTAATTT
- Ka [6]: 7.1e+12 M^-2

B2: Variant 1 (dsDNA)
DNA 1: AAATTAACGAATAACGGGCCGCATTCAGCT
DNA 2: AGCTGAATGCGGCCCGTTATTCGTTAATTT
- Ka [6]: 2.1e+09 M^-2

B3: Variant 3 (dsDNA)
DNA 1: AAATTAACGAATAGTGTTAAGCATTCAGCT
DNA 2: AGCTGAATGCTTAACACTATTCGTTAATTT
- Ka [6]: 3.9e+11 M^-2

B4: Central palindrome (dsDNA)
DNA 1: GAATAACGTTAAG
DNA 2: CTTAACGTTATTC
- binding result [7]: no binding

B5: graTA operator wild type 33 bp (dsDNA)
DNA 1: AAATTAACGAATAACGTTAAGCATTCAGCTCAT
DNA 2: ATGAGCTGAATGCTTAACGTTATTCGTTAATTT
- Ka [8]: 3e+13 M^-2
- Ka [9]: < 1e+07 M^-2

B6: Variant 4 (dsDNA)
DNA 1: AAAGGCACGAATAACGTTAAGCATTCAGCT
DNA 2: AGCTGAATGCTTAACGTTATTCGTGCCTTT
- Ka [6]: 4.3e+13 M^-2

B7: Upstream half (dsDNA)
DNA 1: AAATTAACGAATAACGTTAAG
DNA 2: CTTAACGTTATTCGTTAATTT
- binding result [7]: no binding

B8: Variant 6 (dsDNA)
DNA 1: AAATTAACGAATAACGTTAAGCCGGCAGCT
DNA 2: AGCTGCCGGCTTAACGTTATTCGTTAATTT
- Ka [6]: 1.5e+13 M^-2

B9: Variant 2 (dsDNA)
DNA 1: AAATTAACGAAGCCCGTTAAGCCGGCAGCT
DNA 2: AGCTGCCGGCTTAACGGGCTTCGTTAATTT
- Ka [6]: 4.7e+11 M^-2

B10: Downstream half (dsDNA)
DNA 1: AATAACGTTAAGCATTCAGCT
DNA 2: AGCTGAATGCTTAACGTTATT
- binding result [7]: no binding
